This note sets out measurements from patent US20210317213A1 (AMBRX, published 2021).

As a reminder, the EC50 is the midpoint of the concentration-response curve. In general, Kd refers to the equilibrium constant for the complex coming apart. As usually defined, the EC50 (read off the curve) is the concentration giving half of the maximal effect.

Experiment [1] has as its target Folate receptor-alpha (FOLR1) (human) (UniProt P15328). The experiment can be described thus: cell binding, SKOV-3 cells with 50 nM SFA; through the folate moiety.
Experiment [2] has as its target T1, human CD3 (human, UniProt P07766 23-207).
T1 construct: whole, on cells; also called CD3 on human T-cells
The experiment can be described thus: cell binding, human T-cells. Set-up: Bmax: unit not given here.

Experiment [3] has as its target Folate receptor-alpha (FOLR1) (human) (UniProt P15328). The experiment can be described thus: cell binding, FOLRα-expressing KB cells; through the folate moiety.
Experiment [4] has the same target. Put plainly: summary table; FRα affinity over CD3 affinity.
Experiment [5] has as its target T1, human CD3. The experiment can be described thus: cell binding, human CD3, 50 nM SFA present.
Experiment [6] has as its target T2, cyno CD3 (cyno (cynomolgus monkey), UniProt Q95LI5 22-198).
T2 construct: whole, on cells; also called CD3 on Cynomolgus T-cells
The experiment can be described thus: cell binding, cynomolgus T-cells.

Experiment [7] has as its target T1, human CD3. The experiment can be described thus: cell binding, human PBMC.
For experiment [8], the target named is Folate receptor-alpha (FOLR1) (human) (UniProt P15328). Put plainly: summary table; cell binding through the folate moiety.
In experiment [9] the target is T1, human CD3. The experiment can be described thus: summary table; cell binding EC50, human PBMC.
The next experiment deals with Folate receptor beta (human, UniProt P14207 17-230). The experiment can be described thus: cell-based or functional assay.
The target in experiment [10] is T1, human CD3. The experiment can be described thus: cell binding, human PBMC, 20 nM SFA present.
For experiment [11], the target named is T1, human CD3. The experiment can be described thus: cell binding, activated human PBMC.
Experiment [12] addresses T1, human CD3. Put plainly: flow cytometry (MFI) on activated human PBMC, Fab in HEK293 culture medium, concentration not shown. As to the method: Testing for CD3 binding with activated human and cyno PBMC: To distinguish between the humanized anti-CD3 antibodies generated, binding to human CD3 was tested using activated human PBMCs (n=2). The activation of PBMCs and subsequent fluorescence-based CD3 binding assays were followed as described previously (see for example, Angew Chem Int Ed Engl, 52(46):12101-12104, 2013). […] The binding of the remaining 6 humanized antibodies to both human and cyno CD3 using activated human and cyno PBMCs, respectively, was titrated. […] The six (6) humanized anti-CD3 antibodies were obtained as follows: Fab1, Fab2 and Fab3 wildtype were generated by combination of LC ((vL1.2+CL); (SEQ.ID. NO:7)) and HC ((vH1.2+CH1); (SEQ.ID. NO:1)), ((vH1.1+CH1); (SEQ.ID. NO:2)) and ((vH1.0+CH1); (SEQ.ID. NO:3)) respectively. Fab4, Fab 5 and Fab6 wildtype were generated by combination of LC ((vL1.1+CL); (SEQ.ID. NO:8)) and HC ((vH1.2+CH1); (SEQ.ID. NO:1)), ((vH1.1+CH1); (SEQ.ID. NO:2)) and ((vH1.0+CH1); (SEQ.ID. NO:3)) respectively.

In experiment [13] the target is T2, cyno CD3. The experiment can be described thus: flow cytometry (MFI), 11-point titration on cyno CD3 (activated cyno PBMC), HEK293 culture supernatant. The protocol: (§1) Screening for human and cyno CD3 binding: HEK293 culture supernatants were directly used to test for binding to human CD3 in the screening phase. In Round 1 experiment, initially 35 clones were tested for binding to human CD3 at three different protein concentrations, and 13 were selected for detailed binding assays to both human and cyno CD3. An 11-point binding titration curve was generated to both human (FIG. 4A) and cyno CD3 (FIG. 4B) for each clone. […] Similarly, 43 clones were screened in Round 2 experiment. After two-stage screening as described above for Round 1, 11 low-affinity variants were obtained, of which 4 are represented as shown in FIGS. 5A-5B

Experiment [14] concerns the target T1, human CD3. The experiment can be described thus: flow cytometry (MFI), 11-point titration on human CD3 (activated human PBMC), HEK293 culture supernatant. The protocol: as §1
Experiment [15] has as its target T2, cyno CD3. The experiment can be described thus: flow cytometry (MFI) titration on cyno CD3 (activated cyno PBMC), HEK293 culture supernatant. As to the method:
as §1

In experiment [16] the target is T1, human CD3. The experiment can be described thus: flow cytometry (MFI) titration on human CD3 (activated human PBMC), HEK293 culture supernatant. The protocol:
as §1
On the technique in general: In flow cytometry, cells or beads pass a laser one at a time.

The target in experiment [17] is T2, cyno CD3. The experiment can be described thus: cell binding, activated cyno PBMC; E. coli protein.
Experiment [18] deals with T1, human CD3. Put plainly: cell binding, activated human PBMC; E. coli protein.

Numbering of substitutions follows the chain as printed.

Sequence of Folate receptor-alpha (FOLR1) (human) (P15328 25-234): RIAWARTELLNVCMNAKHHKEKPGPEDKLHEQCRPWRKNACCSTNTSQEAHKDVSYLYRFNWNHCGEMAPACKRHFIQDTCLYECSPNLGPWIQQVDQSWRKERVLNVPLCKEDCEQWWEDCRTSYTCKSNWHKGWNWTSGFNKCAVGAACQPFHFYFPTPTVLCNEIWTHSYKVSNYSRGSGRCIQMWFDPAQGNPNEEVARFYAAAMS
T2 sequence (Q95LI5 22-198): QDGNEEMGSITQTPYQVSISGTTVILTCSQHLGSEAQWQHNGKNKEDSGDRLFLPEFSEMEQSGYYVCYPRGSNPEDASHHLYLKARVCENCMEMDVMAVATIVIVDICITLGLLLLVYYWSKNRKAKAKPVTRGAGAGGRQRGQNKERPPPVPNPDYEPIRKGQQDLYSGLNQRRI
T1 sequence (P07766 23-207): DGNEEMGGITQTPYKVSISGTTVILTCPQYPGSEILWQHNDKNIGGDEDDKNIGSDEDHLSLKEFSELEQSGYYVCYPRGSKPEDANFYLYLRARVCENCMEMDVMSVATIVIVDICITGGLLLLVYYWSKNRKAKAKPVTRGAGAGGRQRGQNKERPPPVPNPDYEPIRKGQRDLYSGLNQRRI
Sequence of Folate receptor beta (P14207 17-230): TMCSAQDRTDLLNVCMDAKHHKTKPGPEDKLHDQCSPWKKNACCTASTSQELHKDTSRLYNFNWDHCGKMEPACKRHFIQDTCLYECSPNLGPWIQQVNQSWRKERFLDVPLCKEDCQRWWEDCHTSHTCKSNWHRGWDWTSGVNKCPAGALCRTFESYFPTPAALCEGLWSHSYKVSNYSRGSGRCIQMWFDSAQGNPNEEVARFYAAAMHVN

B1: Fab1-HK129-LL157-BiFolate (Fab, V domains shown)
VH: EVQLVESGGGLVQPGGSLRLSCAASGFTFNTYAMNWVRQAPGKGLEWVARIRSKYNNYATYYADSVKDRFTISRDDSKNILYLQMNSLKTEDTAVYYCVRHGNFGNSYVSWFAYWGQGTLVTVSS
VL: QAVVTQEPSLTVSPGGTVTLTCRSSTGAVTTSNYANWVQQKPGQAPRGLIGGTNKRAPGTPARFSGSLLGGKAALTLSGAQPEDEAEYYCALWYSNLWVFGGGTKLTVLG
modifications: pAF at LL157 (Kabat) conjugated to folate (oxime); pAF at HK129 (Kabat) conjugated to folate (oxime)
notes: From E. coli; carries two folates
Regarding B1, the EC50 in experiment [1] came to 19.8 nM; with human CD3 [5] it was 2.37 nM; with human CD3 [7] it was 1.93 nM. Further, the values for the Fold increase binding (vs Fab1-HK129-Folate) (in experiment [1]; with human CD3 [7]) were 2.2 fold and 1.3 fold, respectively. Moreover, the Bmax in the experiment with human CD3 [2] was determined as 24600; in experiment [3] it was 74400; in the experiment with cyno CD3 [6], 19600. In addition, the equilibrium dissociation constant (Kd) with human CD3 [2] is 0.669 nM; in [3], 0.85 nM; with cyno CD3 [6] it was 1 nM. For the same molecule, the Affinity ratio (FRα:CD3) in experiment [4] stood at 10. For the same molecule, the FRα binding affinity in experiment [8] was determined as 19.8 nM. The molecule further had a CD3 binding affinity with human CD3 [9] of 1.93 nM.

B2: Fab1-HK129-LK172-BiFolate (Fab, V domains shown)
VH: B1 VH
VL: B1 VL
modifications: pAF at LK172 (Kabat) conjugated to folate (oxime); pAF at HK129 (Kabat) conjugated to folate (oxime)
notes: as for B1
In experiment [1], B2 returned an EC50 of 10 nM and a Fold increase binding (vs Fab1-HK129-Folate) of 4.4 fold. For the same molecule, the Affinity ratio (FRα:CD3) in experiment [4] worked out at 3.5. In the experiment with human CD3 [7], it took 2.85 nM to reach a half-maximal effect (EC50) and the “Fold increase binding (vs Fab1-HK129-Folate)” value was 0.86 fold. Also, in experiment [8], the FRα binding affinity worked out at 10 nM. For the same molecule, in the experiment with human CD3 [9], the CD3 binding affinity turned out to be 2.85 nM.

B3: Fab1-HK129-LL157-Folate (Fab, V domains shown)
VH: B1 VH
VL: B1 VL
modifications: pAF at LL157 (Kabat); folate conjugated, and the label does not say at one site or both; pAF at HK129 (Kabat); folate conjugated, and the label does not say at one site or both
In the case of B3, in the experiment with Folate receptor beta, the “IC50, killing of human M2 macrophages with human T-cells, 50 nM folic acid” value amounted to 0.0012 nM.

B4: Fab10-HK129-LL157-BiFolate-Bi5KPEG (Fab, V domains shown)
VH: B1 VH with N30S
VL: B1 VL with V38F, T60V
modifications: pAF at LL157 (Kabat) conjugated to a bifunctional linker carrying folate and 5K PEG (oxime); pAF at HK129 (Kabat) conjugated to a bifunctional linker carrying folate and 5K PEG (oxime)
The molecule B4 registered an EC50 with human CD3 [10] of 6310 nM.

B5: Fab1-HK129-LL157-5KPEG-Folate (Fab, V domains shown)
VH: B1 VH
VL: B1 VL
modifications: pAF at LL157 (Kabat); 5K PEG-folate conjugated, and the label does not say at one site or both; pAF at HK129 (Kabat); 5K PEG-folate conjugated, and the label does not say at one site or both
With B5, in the experiment with Folate receptor beta, the “IC50, killing of human M2 macrophages with human T-cells, 50 nM folic acid” value is 0.112 nM.

B6: Fab9-HK129-LL157-BiFolate-Bi5KPEG (Fab, V domains shown)
VH: B1 VH with A49G, I80S
VL: B1 VL with V38F, T60V
modifications: pAF at LL157 (Kabat) conjugated to a bifunctional linker carrying folate and 5K PEG (oxime); pAF at HK129 (Kabat) conjugated to a bifunctional linker carrying folate and 5K PEG (oxime)
B6 registered an EC50 with human CD3 [10] of 340 nM.

B7: Fab11-HK129-Folate (Fab, V domains shown)
VH: B1 VH with N30S, A49G, I80S
VL: B1 VL with V38F, G48T, G51Y, G59W
modifications: pAF at HK129 (Kabat) conjugated to folate (oxime)
As for B7, in the experiment with human CD3 [11], the binding result was “no binding (tested: 1000 nM)”.

B8: Fab20-HK129-Folate (Fab, V domains shown)
VH: B1 VH with N35H
VL: B1 VL with K55N
modifications: pAF at HK129 (Kabat) conjugated to folate (oxime)
With B8, the binding result with human CD3 [11] is listed as “no binding (tested: 1000 nM)”.

B9: humanized anti-CD3 Fab vH1.2 + vL1.0 (Fab, V domains shown)
VH: B1 VH
VL: B1 VL with V38F, G48T, G51Y, G59W
notes: it has no Fab number; HEK293 supernatant; also called antibody with vL1.0 light chain and vH1.2
B9: the binding result with human CD3 [12] was “no binding”.

B10: Fab19-HK129-Folate (Fab, V domains shown)
VH: B1 VH with N35H
VL: B1 VL
modifications: pAF at HK129 (Kabat) conjugated to folate (oxime)
Take B10: the binding result in the experiment with human CD3 [11] is on record as “no binding (tested: 1000 nM)”.

B11: humanized anti-CD3 Fab vH1.0 + vL1.0 (Fab, V domains shown)
VH: B1 VH with A49G, I80S
VL: B1 VL with V38F, G48T, G51Y, G59W
notes: it has no Fab number; HEK293 supernatant; also called antibody with vL1.0 light chain and vH1.0
Turning to B11, the binding result in the experiment with human CD3 [12] is “no binding”.

B12: humanized anti-CD3 Fab vH1.1 + vL1.0 (Fab, V domains shown)
VH: B1 VH with I80S
VL: B1 VL with V38F, G48T, G51Y, G59W
notes: it has no Fab number; HEK293 supernatant; also called antibody with vL1.0 light chain and vH1.1
For B12, the binding result with human CD3 [12] is given as “no binding”.

B13: Fab7 (vH2.3 / vL2.4), wild type from HEK293 (Fab, V domains shown)
VH: B1 VH with V99A
VL: B1 VL with G59W, T60V
notes: HEK293 supernatant
Turning to B13, the concentration giving a half-maximal response (EC50 (read off the curve)) in the experiment with cyno CD3 [13] and in the experiment with human CD3 [14] was approximately 2 nM each time.

B14: Fab8 (vH2.2 / vL2.1), wild type from HEK293 (Fab, V domains shown)
VH: B1 VH with A49G
VL: B1 VL with V38F, T60V
notes: HEK293 supernatant
Regarding B14, the concentration for a half-maximal effect (EC50 (read off the curve)) with cyno CD3 [13] is approximately 6 nM.

B15: Fab9 (vH1.0 / vL2.1), wild type from HEK293 (Fab, V domains shown)
VH: B1 VH with A49G, I80S
VL: B1 VL with V38F, T60V
notes: HEK293 supernatant
B15: the “EC50 (read off the curve)” value with human CD3 [14] was approximately 10 nM.

B16: Fab14 (Fab, V domains shown)
VH: B1 VH with A49G, I80S, V99A
VL: B1 VL with V38F, T60V
notes: distinct from m37 (Fab14-HK129-Folate); also called Fab14 (vH2.5 / vL2.1), wild type from HEK293
As for B16, the “EC50 (read off the curve)” value with cyno CD3 [15] is approximately 10 nM; with human CD3 [16] it was approximately 5 nM.

B17: Fab1 wildtype (vH1.2+CH1 / vL1.2+CL), humanized anti-CD3 SP34 (Fab, V domains shown)
VH: B1 VH
VL: B1 VL
notes: also called Fab1-WT; vH1.2+vL1.2
For B17, the 50% effective concentration (EC50) amounted to 0.75 nM in the experiment with cyno CD3 [17] and 0.93 nM with human CD3 [18]. For the same molecule, the “EC50 (read off the curve)” value in the experiment with cyno CD3 [15] is approximately 2 nM; with cyno CD3 [13] it was approximately 0.6 nM; with human CD3 [16] it was approximately 0.8 nM; in the experiment with human CD3 [14] it was approximately 0.7 nM.
